Key:
mouse albumin = test: Indel analysis (nuclease activity) in livers of mice injected intravenously with ZFN mRNA LNPs; type: in vivo; details: 48641/31523 mRNA LNP (II-9), single dose 2 mg/kg; FIG. 4B
Method: 8-10 week old C57BL6 purchased from Charles River were injected intravenously through the tail vein with 200 uL of an aqueous solution containing diluted LNPs or a mixture of diluted LNPs and AAV donor encoding a human IDS or human FIX transgene containing homology arms flanking the ZFN cut site and a splice acceptor just upstream of the coding sequence of the transgene. Some animals were injected with 5 mg/kg dexamethasone intraperitoneally 30 minutes prior to LNP dosing. Animals were then sacrificed 7 days post LNP dosing or re-dosed with LNPs at either a 7 or 14 day interval before subsequent sacrifice and harvesting of liver tissue. Livers were snap frozen and a small portion of both the left and right lobes were dissected and harvested for gDNA using a FastPrep-24 Homogenizer (MP Biomedicals), Lysis Matrix D solution (MP Biomedicals), and a MasterPure DNA Purification kit (Epicentre).
Primers were designed to amplify approximately 200 bp of total genomic DNA sequence containing the ZFN cut site. Amplicons were then ran on either a Miseq or Nextseq (Illumina) and insertions and deletions (indels) from the wildtype genomic sequence were quantified.
To test the ability of targeted zinc finger nucleases to cleave a site in the mouse genome in vivo, mRNAs encoding albumin specific nucleases were incorporated into LNPs as described above using the cationic lipid I-6. […]

[1] = system: ZFN 48641 (mALB) (synthetic); test: cell_activity; details: pair with 31523; mouse liver after third 2 mg/kg LNP dose
[2] = system: ZFN 31523 (mALB) (synthetic); test: cell_activity; details: pair with 48641; mouse liver after third 2 mg/kg LNP dose

Molecule: C[C@H]1C[C@@H]2[C@H]([C@@H](O)C[C@@]3(C)[C@H]2CC[C@]3(O)C(=O)COC(=O)CCC(=O)[O-])[C@@]2(C)C=CC(=O)C=C12.[Na+] [Solumedrol®, methylprednisolone sodium succinate]
- nuclease activity, dexamethasone pretreatment vs Solumedrol pretreatment plus 3 days (mouse albumin): slightly more efficacious

Molecule: CTGAAGGTGGCAATGGTTCCTCTCTGCT (double strand) [mouse ALB intron 1 left half-site]
- activity [1]: 25 % indels

Molecule: TTTCCTGTAACGATCGGGAACTGGCATC (double strand) [mouse ALB intron 1 right half-site]
- activity [2]: 25 % indels

Source: patent US20180185516A1, “DELIVERY OF TARGET SPECIFIC NUCLEASES” (Sangamo Therapeutics, Inc., priority 2016, published 2018)
